Reference: the supplement of paper PMC9170038

Tested on: MS2 coat protein
Test: apparent KD of MS2 coat protein; designed switch direction (-1 OFF switch, 1 ON switch): 1; higher = weaker reporter binding
Procedure, shortened: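 Designed RNA switches sharing common flanks were transcribed on Illumina chips by stalled E. coli RNA polymerase. They were titrated with SNAP-549-labelled MS2 coat protein, from 0.7 or 1.5 nM doubling to 3 µM, in Tris-HCl pH 7.5 buffer with KCl, MgCl2, BSA, DTT, tRNA and Tween-20. Titrations ran without input, with 200 uM small-molecule ligand, or with an oligonucleotide input. The apparent KD of each design is the median over its clusters, after curve-fitting of normalised cluster fluorescence.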

[1] = input ligand: microRNA oligo, concentration not stated
[2] = Eterna round: R95, input ligand: microRNA oligo, concentration not stated
[3] = Eterna round: R95, input ligand: FMN 200 uM
[4] = Eterna round: R95, input ligand: none

Sequence: GGAAACAAGAGAGGAUAUGCAGAGGAUCACCCUGUAGAAGGCUCCCUAGAGAGGAUAUGCAGAGGAUCACCCUGCAGAAGGCUC [pwkr ssNG DX.18] (Eterna round: R96, puzzle: Same State NG 1)
- apparent KD of MS2 coat protein (input ligand: FMN 200 uM): 227 nM
- apparent KD of MS2 coat protein [1]: 27.7 nM
- apparent KD of MS2 coat protein (input ligand: none): 89.1 nM

Sequence: GUGGUCAGACAUGAGGAUCACCCAUGUGGAAUAAAUAACGGUGAGGAUAUGCAAUAUAGGAUAUAGUAGAAGGCAUGAUUGGUG (Eterna round: R96, puzzle: Same State NG 3)
- apparent KD of MS2 coat protein (input ligand: FMN 200 uM): 164 nM
- apparent KD of MS2 coat protein [1]: 104 nM
- apparent KD of MS2 coat protein (input ligand: none): 132 nM

Sequence: CGUCGCUGUCGAGAGGAUAUGCGGUGGUGGACAUGAGGAUCACCCAUGUUAGCGAUAGCAUCACGGUAGAAGGCUCUUACGACUG [Soteed Omei mod 25] (puzzle: Same State 2)
- apparent KD of MS2 coat protein [2]: 18.1 nM

Sequence: UGCCUGAGUCGAGGAUAUUAUGGAUCAAUUAAUACAUGAGGAUCACCCAUGUAAUUAAUUUAACAUGAGAAGGUGACUCAGGCA [SSNG2/10-B2] (Eterna round: R96, puzzle: Same State NG 2)
- apparent KD of MS2 coat protein (input ligand: FMN 200 uM): 14.9 nM
- apparent KD of MS2 coat protein [1]: 12.2 nM
- apparent KD of MS2 coat protein (input ligand: none): 9.99 nM

Sequence: UUAAUCUGAACAUGAGGAUCACCCAUGUAUCUUACCUUAGGACAGGAUAUAGAUGUUAAGAAUUACUAGAAGGGUCAGUAUAUU [JR_SSNG3_Sub012] (Eterna round: R96, puzzle: Same State NG 3)
- apparent KD of MS2 coat protein [1]: 33.1 nM

Sequence: GCUGCAAUAAACGCCUACAUGAGGAUCACCCAUGUAUGUAGGCAGGAUAUCGUAUGCAAAGCAUACGAGAAGGGCUGUAGUAGC [Mat - Same State NG 3 - JL Mod - D39] (Eterna round: R96, puzzle: Same State NG 3)
- apparent KD of MS2 coat protein (input ligand: FMN 200 uM): 65.3 nM
- apparent KD of MS2 coat protein [1]: 97.3 nM
- apparent KD of MS2 coat protein (input ligand: none): 112 nM

Sequence: AUCCCAUCGGGAGGAUAUGGAACCUUAUUGGUUCCAGAAGGUCCAACAUGAGGAUCACCCAUGUGGGAGUGGUCUAAUGACCAC [Fiskers NG1ss - 29] (Eterna round: R96, puzzle: Same State NG 1)
- apparent KD of MS2 coat protein (input ligand: FMN 200 uM): 222 nM
- apparent KD of MS2 coat protein [1]: 272 nM
- apparent KD of MS2 coat protein (input ligand: none): 470 nM

Sequence: GCUGCGUUUAACGCCUACAUGAGGAUCACCCAUGUAUGUAGGCAGGAUAUCGUUUGCUUUGCAAACGAGAAGGGCUGUAGUAGC [salish99_SSNG3_R04_005] (Eterna round: R96, puzzle: Same State NG 3)
- apparent KD of MS2 coat protein (input ligand: FMN 200 uM): 41.6 nM
- apparent KD of MS2 coat protein [1]: 85 nM
- apparent KD of MS2 coat protein (input ligand: none): 73.8 nM

Sequence: UGCCUGAGUCGAGGAUAUUAUGGAUCCUCUAAUACAUGAGGAUCACCCAUGUAAUUAAUUAUACAUGAGAAGGCGACUCAGGCU [SSNG2/12-A1] (Eterna round: R96, puzzle: Same State NG 2)
- apparent KD of MS2 coat protein (input ligand: FMN 200 uM): 304 nM
- apparent KD of MS2 coat protein [1]: 22.3 nM
- apparent KD of MS2 coat protein (input ligand: none): 46.5 nM

Sequence: GUAUAACAUGAGGAUCACCCAUGUCAACAAAGUCGAGGAUAUGGGCAUAGAUUAUAAGAACCAGAAGGCGAAUAUG [Mat - Same State 1 - Mod of UCT - D42] (puzzle: Same State 1)
- apparent KD of MS2 coat protein [3]: 119 nM
- apparent KD of MS2 coat protein [2]: 219 nM
- apparent KD of MS2 coat protein [4]: 666 nM

Sequence: GUGGUCAGACAUGAGGAUCACCCAUGUGGAAUAAAUAAGGUUUAGGAUAUGGAAUAUAGGAUAUACCAGAAGGGAGGGUUGGUG (Eterna round: R96, puzzle: Same State NG 3)
- apparent KD of MS2 coat protein [1]: 90.4 nM

Sequence: GGUGCGAAUAAAGCCUACAUGAGGAUCACCCAUGUAUGUAGGCAGGAUAUCGUUUGCAAAGCAAACGAGAAGGGCUGUCGCACC [Mat - Same State NG 3 - JL Mod - D46] (Eterna round: R96, puzzle: Same State NG 3)
- apparent KD of MS2 coat protein (input ligand: FMN 200 uM): 29.9 nM
- apparent KD of MS2 coat protein [1]: 55.2 nM
- apparent KD of MS2 coat protein (input ligand: none): 100 nM

Sequence: AUAAUAAUAAGUCAGGAUAUGUUGAUAAAGACAUGAGGAUCACCCAUGUGAAAUAAAAUAAUAAUACAGAAGGGACAAUAAUAAA [JMF's solution 3] (puzzle: Same State 2)
- apparent KD of MS2 coat protein [3]: 252 nM
- apparent KD of MS2 coat protein [2]: 64 nM
- apparent KD of MS2 coat protein [4]: 265 nM

Sequence: GGAGAACAUGAGGAUCACCCAUGUGGAUGGGCGCUAGGAUAUGCGAGAGGGUGAAGAGAAGCAGAAGGAGUGGAUA [JR_SS1_Sub036] (puzzle: Same State 1)
- apparent KD of MS2 coat protein [3]: 101 nM
- apparent KD of MS2 coat protein [2]: 104 nM
- apparent KD of MS2 coat protein [4]: 161 nM

Sequence: AGUCCAGCCUGAGCUGGACAAAGGCAUGUACAUGAGGAUCACCCAUGUCAUGUACAAGCUUUUUGCUCGUCUUAAAA [Zipper 46 - 1] (puzzle: Sensor for hsa-mir-208a)
- apparent KD of MS2 coat protein [3]: 161 nM
- apparent KD of MS2 coat protein [2]: 14.9 nM
- apparent KD of MS2 coat protein [4]: 187 nM

Sequence: UUUAGUUGCGGGCAGGAUAUGUAUUAAAAUACAUGAGGAUCACCCAUGUGAGAUCGAAAAGAUCUACAGAAGGGCCAAUCGCGAC [Laonerce - 24] (puzzle: Same State 2)
- apparent KD of MS2 coat protein [3]: 14 nM
- apparent KD of MS2 coat protein [2]: 58.3 nM
- apparent KD of MS2 coat protein [4]: 85.8 nM

Sequence: CGUUCAUACUCAGGACGGAGAGUAGAGGAACAUGAGGAUCACCCAUGUAUGAGCUUUUUGCUCGUCAUGAACAGGAG [JR_SHM208a_Sub011] (puzzle: Sensor for hsa-mir-208a)
- apparent KD of MS2 coat protein [3]: 103 nM
- apparent KD of MS2 coat protein [2]: 72.2 nM
- apparent KD of MS2 coat protein [4]: 117 nM

Sequence: AAAAUGCGGGAAGGAUAUGGGAAAGGAAGUGUACCAGAAGGUCUCGCGGCCAAGGACAUGAGGAUCACCCAUGUUAACGCCCGA [PowerStrip SSNG 1.8] (Eterna round: R96, puzzle: Same State NG 1)
- apparent KD of MS2 coat protein (input ligand: FMN 200 uM): 204 nM
- apparent KD of MS2 coat protein [1]: 43.4 nM
- apparent KD of MS2 coat protein (input ligand: none): 40.8 nM

Sequence: GAGUGGUAGAGAGGAUAUGCAUUGUUAUUAAAUGCAGAAGGUUUUAACAUGAGGAUCACCCAUGUAGGACUAUUCCUGUGUUUC [Parity 66 - Jieux - Same State NG 1] (Eterna round: R96, puzzle: Same State NG 1)
- apparent KD of MS2 coat protein [1]: 10.8 nM

Sequence: UAGAAACAUGAGGAUCACCCAUGUGUCAAAGACAUAGGAUAUCAUAACUGGCGCCAGUUAUGAGAAGGGUGGUAAA [Belezaqu] (puzzle: Same State 1)
- apparent KD of MS2 coat protein [3]: 33.8 nM
- apparent KD of MS2 coat protein [2]: 52.6 nM
- apparent KD of MS2 coat protein [4]: 170 nM

Sequence: ACCCAAAGUAUAUGGGAACGAGCUUUUUAACAUGAGGAUCACCCAUGUACUCGUCUUAUAAGCAGUCGAAAGACUGC [Sensor 100 - 3] (puzzle: Sensor for hsa-mir-208a)
- apparent KD of MS2 coat protein [3]: 359 nM
- apparent KD of MS2 coat protein [2]: 19.2 nM
- apparent KD of MS2 coat protein [4]: 390 nM

Sequence: GUCCAAAACACAGGAUAUCCCAGUCAUGAUCUGGGAGAAGGGUGGCCACAUGAGGAUCACCCAUGUGAAGUGCGAGAGGCACGA [Inerraat] (Eterna round: R96, puzzle: Same State NG 1)
- apparent KD of MS2 coat protein (input ligand: FMN 200 uM): 258 nM
- apparent KD of MS2 coat protein [1]: 827 nM
- apparent KD of MS2 coat protein (input ligand: none): 629 nM

Sequence: AUAAGACAGGCAGGAUAUGGGCCUGACUCUGAUAUCAGAGUCUACACAUGAGGAUCACCCAUGUCCCAGAAGGGCCUGAAGAAG [Zavean] (Eterna round: R96, puzzle: Same State NG 2)
- apparent KD of MS2 coat protein (input ligand: FMN 200 uM): 17.6 nM
- apparent KD of MS2 coat protein [1]: 92.2 nM
- apparent KD of MS2 coat protein (input ligand: none): 102 nM

Sequence: UUAAUUAAUUAAUUAUACAUGAGGAUCACCCAUGUAAGUGAUCAGGAUAUCAGCUCGAAUAGAGCUGAGAAGGGAUACAUGAAU [SSNG3/12-A1] (Eterna round: R96, puzzle: Same State NG 3)
- apparent KD of MS2 coat protein [1]: 101 nM

Sequence: CUGUAUCGCGGAGGAUAUGGGCUGAGACCAGGACAACCCUGGUCAACAUGAGGAUCACCCAUGUCCCAGAAGGCCGCGAUGCUA [Zazalaonor] (Eterna round: R96, puzzle: Same State NG 2)
- apparent KD of MS2 coat protein (input ligand: FMN 200 uM): 16.1 nM
- apparent KD of MS2 coat protein [1]: 97.3 nM
- apparent KD of MS2 coat protein (input ligand: none): 108 nM

Sequence: AUAACACUGGCAGGAUAUGGGAAAGGAAGUGUACCAGAAGGGCCAGAACGGCGAUGGACAUGAGGAUCACCCAUGUCUUAGCCU [PowerStrip SSNG 1.4] (Eterna round: R96, puzzle: Same State NG 1)
- apparent KD of MS2 coat protein (input ligand: FMN 200 uM): 12.7 nM
- apparent KD of MS2 coat protein [1]: 11.4 nM
- apparent KD of MS2 coat protein (input ligand: none): 13.9 nM

Sequence: UCAAGCGUUUGGCUCGUCUUAUGUUUGGUACAUGAGGAUCACCCAUGUUAGGGACGAUCCAGUUAGAUGGAAUUUUG [JR_SHM208A_Sub036] (puzzle: Sensor for hsa-mir-208a)
- apparent KD of MS2 coat protein [3]: 36.5 nM
- apparent KD of MS2 coat protein [2]: 637 nM
- apparent KD of MS2 coat protein [4]: 45.6 nM

Sequence: GGUGCGAAAUAAGCCUACAUGAGGAUCACCCAUGUAUGUAGGCAGGAUAUCGUUUGCAAAGCAAACGAGAAGGGCUGACGCACC [Mat - Same State NG 3 - JL Mod - D50] (Eterna round: R96, puzzle: Same State NG 3)
- apparent KD of MS2 coat protein (input ligand: FMN 200 uM): 31.1 nM
- apparent KD of MS2 coat protein [1]: 52.6 nM
- apparent KD of MS2 coat protein (input ligand: none): 94.5 nM

Sequence: AUCAAAGCGUGAGGAUAUAUGGGAACACGAGUCGUAGAAGGUACGUCAAUACAUGAGGAUCACCCAUGUAAAGAGGAGAACCUC [Eternabot solution 33] (Eterna round: R96, puzzle: Same State NG 1)
- apparent KD of MS2 coat protein (input ligand: FMN 200 uM): 60.1 nM
- apparent KD of MS2 coat protein [1]: 32.9 nM
- apparent KD of MS2 coat protein (input ligand: none): 45.2 nM

Sequence: AGAGAACAUGAGGAUCACCCAUGUAGGAUGGGCAUAGGAUAUAGAAGGAUGAGGGAGAAACUAGAAGGAUGAUGGA [JR_SS1_Sub077] (puzzle: Same State 1)
- apparent KD of MS2 coat protein [3]: 124 nM
- apparent KD of MS2 coat protein [2]: 152 nM
- apparent KD of MS2 coat protein [4]: 278 nM

Sequence: GCAGGACAUGAGGAUCACCCAUGUUCAAAAUAUUGAGGAUAUGGAUACGGUAUAUCCGAACCAGAAGGCAACCUGC [SS1 Teenbexe 22] (puzzle: Same State 1)
- apparent KD of MS2 coat protein [2]: 16.6 nM

Sequence: UUCUCCUUUUUUUACAUGAGGAUCACCCAUGUUUUUCUUACGUAGGAUAUCGUUGUUUUUUUUUACGAGAAGGACGUAGUAAGU [JR_SSND3_Sub060] (Eterna round: R96, puzzle: Same State NG 3)
- apparent KD of MS2 coat protein (input ligand: FMN 200 uM): 31.5 nM
- apparent KD of MS2 coat protein [1]: 25.8 nM
- apparent KD of MS2 coat protein (input ligand: none): 36.2 nM
